Results from article PMC7764042, “Interferon Beta Activity Is Modulated via Binding of Specific S100 Proteins” (International Journal of Molecular Sciences, 2020).

Target: the molecule itself
Assay: SPR; estimate from the SPR data for 0.5 µM S100 analyte on immobilised IFN-β, 1 mM CaCl2; dimer to monomers, Ca^2+-loaded S100
Details: not given

Binder | Kd [µM]
recombinant human S100A1 (natural protein, human S100A1, Swiss-Prot P23297, gene cloned into pHUE between SacII and HindIII; Made as a ubiquitin-S100 chimera and cut with Usp2; also called S10A1; source: E. coli BL21 (DE3) with pLacIRARE, purified (IMAC, Usp2 cleavage, anion exchange, gel filtration)) GSELETAMETLINVFHAHSGKEGDKYKLSKKELKELLQTELSGFLDAQKDVDAVDKVMKELDENGDGEVDFQEYVVLVAALTVACNNFFWENS | ≤ 0.5
recombinant human S100A4 (natural protein, human S100A4, Swiss-Prot P26447, gene cloned into pHUE between SacII and HindIII; Made as a ubiquitin-S100 chimera and cut with Usp2; also called S10A4; source: E. coli BL21 (DE3) with pLacIRARE, purified (IMAC, Usp2 cleavage, anion exchange, gel filtration)) not shown | ≤ 0.5

target: T1, recombinant human interferon beta-1a (human, UniProt P01574 22-187); assay: SPR; IFN-β immobilised on ProteOn GLH chip by amine coupling; Ca^2+-loaded S100 as analyte (0.25–5 µM S100A1, 0.5–5 µM S100A4/A6, 5 µM other S100); 25 °C; 10 mM HEPES, 150 mM NaCl, 0.01% TWEEN 20, pH 7.4, 1 mM CaCl2; heterogeneous ligand model; details: both partners purified
T1 construct: human interferon beta (interferon beta-1a), UniProt P01574; Pharmaceutical interferon beta-1a; also called IFN-β; Interferon-β; source: bought: Merck (Rebif), produced in CHO-K1 cells

Binder | Kd [µM]
recombinant human S100A7 (natural protein, UniProt P31151 1-101, looked up, human S100A7, Swiss-Prot P31151, gene cloned into pHUE between SacII and HindIII; Made as a ubiquitin-S100 chimera and cut with Usp2; also called S10A7; source: E. coli BL21(DE3)-RIL, purified (IMAC, Usp2 cleavage, anion exchange, gel filtration)) MSNTQAERSIIGMIDMFHKYTRRDDKIEKPSLLTMMKENFPNFLSACDKKGTNYLADVFEKKDKNEDKKIDFSEFLSLLGDIATDYHKQSHGAAPCSGGSQ | ≥ 10
recombinant human S100A8 (natural protein, UniProt P05109 1-93, looked up, human S100A8, Swiss-Prot P05109, gene cloned into pHUE between SacII and HindIII; Made as a ubiquitin-S100 chimera and cut with Usp2; also called S10A8; source: E. coli BL21(DE3)-RIL, purified (IMAC, Usp2 cleavage, anion exchange, gel filtration)) MLTELEKALNSIIDVYHKYSLIKGNFHAVYRDDLKKLLETECPQYIRKKGADVWFKELDINTDGAVNFQEFLILVIKMGVAAHKKSHEESHKE | ≥ 10
recombinant human S100A14 (natural protein, UniProt Q9HCY8 1-104, looked up, human S100A14, Swiss-Prot Q9HCY8, gene cloned into pHUE between SacII and HindIII; Made as a ubiquitin-S100 chimera and cut with Usp2; also called S10AE; source: E. coli BL21(DE3)-RIL, purified (IMAC, Usp2 cleavage, second IMAC, gel filtration)) MGQCRSANAEDAQEFSDVERAIETLIKNFHQYSVEGGKETLTPSELRDLVTQQLPHLMPSNCGLEEKIANLGSCNDSKLEFRSFWELIGEAAKSVKLERPVRGH | ≥ 10
recombinant human S100A11 (natural protein, UniProt P31949 1-105, looked up, human S100A11, Swiss-Prot P31949, gene cloned into pHUE between SacII and HindIII; Made as a ubiquitin-S100 chimera and cut with Usp2; also called S10AB; source: E. coli BL21 (DE3) with pLacIRARE, purified (IMAC, Usp2 cleavage, anion exchange, gel filtration)) MAKISSPTETERCIESLIAVFQKYAGKDGYNYTLSKTEFLSFMNTELAAFTKNQKDPGVLDRMMKKLDTNSDGQLDFSEFLNLIGGLAMACHDSFLKAVPSQKRT | ≥ 10

Second part, the binder after the results:

Kd [µM] | Binder
≥ 10 | recombinant human S100A15 (S100A7A) (natural protein, UniProt Q86SG5 1-101, looked up, human S100A15 (S100A7A), Swiss-Prot Q86SG5, gene cloned into pHUE between SacII and HindIII; Made as a ubiquitin-S100 chimera and cut with Usp2; also called A1A7A; source: E. coli BL21(DE3)-RIL, purified (IMAC, Usp2 cleavage, anion exchange, gel filtration)) MSNTQAERSIIGMIDMFHKYTGRDGKIEKPSLLTMMKENFPNFLSACDKKGIHYLATVFEKKDKNEDKKIDFSEFLSLLGDIAADYHKQSHGAAPCSGGSQ
≥ 10 | recombinant human S100A9 (natural protein, UniProt P06702 1-114, looked up, human S100A9, Swiss-Prot P06702, gene cloned into pET-11a between NdeI and BamHI; also called S10A9; source: E. coli BL21(DE3)pLysS, purified (ammonium sulfate, anion exchange, cation exchange, gel filtration)) MTCKMSQLERNIETIINTFHQYSVKLGHPDTLNQGEFKELVRKDLQNFLKKENKNEKVIEHIMEDLDTNADKQLSFEEFIMLMARLTWASHEKMHEGDEGPGHHHKPGLGEGTP
≥ 10 | recombinant human S100A13 (natural protein, UniProt Q99584 1-98, looked up, human S100A13, Swiss-Prot Q99584, gene cloned into pET-11a between NdeI and BamHI; also called S10AD) MAAEPLTELEESIETVVTTFFTFARQEGRKDSLSVNEFKELVTQQLPHLLKDVGSLDEKMKSLDVNQDSELKFNEYWRLIGELAKEIRKKKDLKIRKK
≥ 10 | recombinant human S100A12 (natural protein, UniProt P80511 1-92, looked up, human S100A12, Swiss-Prot P80511, gene cloned into pHUE between SacII and HindIII; Made as a ubiquitin-S100 chimera and cut with Usp2; also called S10AC; source: E. coli BL21 (DE3) with pLacIRARE, purified (IMAC, Usp2 cleavage, anion exchange, gel filtration)) MTKLEEHLEGIVNIFHQYSVRKGHFDTLSKGELKQLLTKELANTIKNIKDKAVIDEIFQGLDANQDEQVDFQEFISLVAIALKAAHYHTHKE
